This assay concerns the target HLA-A*0201 molecule (human). The experiment in a line: T2 cells loaded with 100 µM peptide, Brefeldin A, flow cytometry with BB7.2 at 0-8 h. As to conditions: remark: other sources report otherwise. (In general: A flow cytometer gives signals particle by particle.)

Bounds are passed on as bounds.

In the case of YEFLWGPRA [p262 (…)], the DC50 (time for loss of 50% of the complexes) was less than 2 h.
